Experimental findings from patent publication US20120082663A1 (Genentech, published 2012) are described below.

In experiment [1] the target is T1, human HGF receptor Fc fusion (HGFR-Fc) (human, UniProt P08581 25-929, limits assumed).
T1 construct: Generated and used as an Fc fusion; also called HFGR-Fc; b-HGFR-Fc (biotinylated)
As to the kind of experiment: SPR (Biacore), monovalent affinity, HGFR-Fc; murine 5D5, monovalent affinity. A general note: SPR reads the build-up and loss of mass on a sensor chip optically.

Experiment [2] deals with T1, human HGF receptor Fc fusion (HGFR-Fc). Description: SPR (BIAcore-2000), HGFR-Fc immobilised on a CM5 chip, 1:1 Langmuir fit. As for the experimental part: (§1) Affinity determinations were performed by surface plasmon resonance using a BIAcore™-2000. HGFR-Fc was immobilized (˜1000 response units (RU)) on a CM5 chip and varied concentrations of Fab (4 to 500 nM) in PBST were injected. After each injection the chip was regenerated using 100 mM HCl. Binding response was corrected by subtracting the RU from a blank flow cell. A 1:1 Languir model of simultaneous fitting of kₒₙ and koff was used for kinetics analysis.

Experiment [3] addresses T2, cMet-Ig protein (biotinylated) (UniProt P08581 25-929, biotinylated with NHS-X-biotin).
T2 construct: Purified cMet-Ig produced at Genentech; also called cMet-Ig-biotin; not shown: Ig part not described
Description: electrochemiluminescent competition assay in solution: inhibition of 2.5 nM HGF-Tag (ruthenium-labelled HGF) binding to 5 nM cMet-biotin; antibody titrated. The method, then: (§2) Purified cMet-Ig protein produced at Genentech (South San Francisco, Calif.) was biotinylated by incubating with 20-fold molar excess NHS-X-Biotin in 0.1 M NaHCO3, pH 8.5 using biotin-X-NHS (Research Organics, Cleveland, Ohio). Purified human 2-chain HGF produced at Genentech was labeled with BV-TAG (cat #110034) via NHS-ester chemistry according to manufacturer's directions (BioVeris International, Gaithersburg, Md.). cMet-Ig-biotin (500 ng/mL), HGF-Ruthenium Tag (250 ng/mL), and titrations of OA5D5 antibody ranging from 3333-0.21 nM of antibody were incubated together in a volume of 100 ul of assay diluent: PBS ±0.5% BSA/0.5% Tween 20/0.033% Proclin (Supelco Inc. Bellefonte Pa.). The mixtures were incubated in sealed polypropylene round bottom 96 well plates (Corning) for 2-4 hours at room temperature with shaking Streptavidin magnetic beads (Dynabeads, BioVeris) were added. Following a final 45 min incubation with vigorous shaking, the plates were read using a BioVeris M-Series instrument (BioVeris International, Gaithersburg, Md.).

In a further experiment the target is canine HGF receptor (canine, UniProt Q75ZY9 25-935, limits assumed). Description: cross-species binding test, method not described (data not shown).
Experiment [4] addresses murine (mouse) HGF receptor (murine (mouse), UniProt P16056 25-931, limits assumed). The experiment is described as above.
In experiment [5] the target is human c-Met on cells (BaF3-hMet transfected with full-length human c-Met cDNA; A549 and H358 cells) (human, UniProt P08581 25-1390). As to the kind of experiment: cell-based or functional assay.
In experiment [6] the target is T2, cMet-Ig protein (biotinylated). Description: electrochemiluminescent competition assay: antibody (3333-0.21 nM) against HGF-Ruthenium Tag binding to cMet-Ig-biotin. The method, then:
as §2

The target in experiment [7] is T1, human HGF receptor Fc fusion (HGFR-Fc). As to the kind of experiment: SPR (BIAcore-2000), Fab injected over immobilized HGFR-Fc; humanized clone (5D5 graft plus R94S) as Fab. The method, then:
as §1
A library was generated in which each of the HVR regions of the 5D5 graft was soft randomized. This library was panned against immobilized HGFR-Fc for 4 rounds of selection. […] Analysis of this clone by phage ELISA indicated it had similar affinity to that of the monovalent affinity of murine 5D5. […] Thus this unexpected substitution restores full binding affinity to the 5D5 graft, and the 5D5 graft plus R94S (hu5D5.v1) represents a fully humanized antibody. […] MacCallum et al. (MacCallum et al. J. Mol. Biol. 262: 732-745 (1996)) have analyzed antibody and antigen complex crystal structures and found positions 93 and 94 of the heavy chain are part of the contact region thus it seems reasonable to include these positions in the definition of hypervariable region of H3 (HVR-H3) when humanizing antibodies.

For experiment [8] the target is unchanged. As to the kind of experiment: SPR (BIAcore-2000), HGFR-Fc immobilised on a CM5 chip, Fab injected at 4 to 500 nM, 1:1 Langmuir fit. As for the experimental part: as §1
Experiment [9] shares this target. Description: SPR (Biacore), Fab over immobilized HGFR-Fc; reference hu5D5.v1. The method, then:
as §1
Affinity maturation of hu5D5.v1 —To improve the affinity of hu5D5.v1, six phage display libraries were generated in the background of hu5D5.v1, each targeting a single HVR for soft randomization. To avoid re-selecting hu5D5.v1 from a potential high background of wild-type template, stop codons were introduced into the HVR to be mutated prior to generating each library. A solution sorting method was used to enhance the efficiency of the affinity-based phage selection process. By manipulating the biotinylated target concentration, reducing the phage capture time to lower backgrounds and the addition of unbiotinylated target to eliminate clones with faster off rates, high affinity clones can be proficiently selected. Lee et al., supra. […] After 4 rounds of selection, clones from each of the […] library pools were analyzed. […] Selected clones were screened by phage ELISA and then expressed as Fab protein and their affinity determined using Biacore. […]

For experiment [10] the target is unchanged. As to the kind of experiment: SPR (BIAcore-2000), HGFR-Fc immobilised on a CM5 chip.

B1: murine 5D5 anti-c-met antibody, monovalent form (Fab, V domains shown)
VH: QVQLQQSGPELVRPGASVKMSCRASGYTFTSYWLHWVKQRPGQGLEWIGMIDPSNSDTRFNPNFKDKATLNVDRSSNTAYMLLSSLTSADSAVYYCATYGSYVSPLDYWGQGTSVTVSS
VL: DIMMSQSPSSLTVSVGEKVTVSCKSSQSLLYTSSQKNYLAWYQQKPGQSPKLLIYWASTRESGVPDRFTGSGSGTDFTLTITSVKADDLAVYYCQQYYAYPWTFGGGTKLEIKR
notes: also called mu5D5; hybridoma 5D5.11.6 (ATCC HB-11895)
As for B1, the Kd in [1] was 8.3 nM. In experiment [2], this molecule had an off-rate constant (koff) of 0.000743 s⁻¹ and a kon of 89800 M⁻¹ s⁻¹.

B2: chimeric one-armed 5D5 antibody (Fab arm from the murine parent 5D5 antibody fused to a human Fc region) (antibody, V domains shown)
VH: QVQLQQSGPELVRPGASVKMSCRASGYTFTSYWLHWVKQRPGQGLEWIGMIDPSNSDTRFNPNFKDKATLNVDRSSNTAYMLLSSLTSADSAVYYCATYGSYVSPLDYWGQGTSVTVSS
VL: DIMMSQSPSSLTVSVGEKVTVSCKSSQSLLYTSSQKNYLAWYQQKPGQSPKLLIYWASTRESGVPDRFTGSGSGTDFTLTITSVKADDLAVYYCQQYYAYPWTFGGGTKLEIKR
notes: also called rchOA5D5; chimeric one-armed antibody
With B2, in experiment [3], the IC50 stood at 2.6 nM.

B3: OA-5D5.v2 one-armed anti-Met antibody (antibody)
light: DIQMTQSPSSLSASVGDRVTITCKSSQSLLYTSSQKNYLAWYQQKPGKAPKLLIYWASTRESGVPSRFSGSGSGTDFTLTISSLQPEDFATYYCQQYYAYPWTFGQGTKVEIKRTVAAPSVFIFPPSDEQLKSGTASVVCLLNNFYPREAKVQWKVDNALQSGNSQESVTEQDSKDSTYSLSSTLTLSKADYEKHKVYACEVTHQGLSSPVTKSFNRGEC
heavy: not shown
chain: not shown
notes: also called rhuOA5D5v2; one-armed 5D5.v2
Regarding B3, the binding result with canine HGF receptor was “no binding”. Further, the binding result in experiment [4] is recorded as “no binding”. Besides, in experiment [5], the “inhibition of HGF receptor activation (KIRA, HGF-dependent Met phosphorylation in A549 cells); IC50 relative to comparator antibodies” value is < 0.5 fold of the comparator's IC50 and the “inhibition of cell proliferation in the presence of HGF (BaF3-hMet cells); IC50 relative to comparator antibodies” value is < 0.5 fold of the comparator's IC50. The “IC50 relative to comparator antibody (chimeric one-armed antibody, OA-5D5.v1)” value in experiment [6] is < 0.5 fold of the comparator's IC50. Also, the IC50 in experiment [3] came out at 1 nM.

B4: hu5D5.v1 (5D5 graft plus R94S), expressed as Fab (Fab, V domains shown)
VH: EVQLVESGGGLVQPGGSLRLSCAASGYTFTSYWLHWVRQAPGKGLEWVGMIDPSNSDTRFNPNFKDRFTISADTSKNTAYLQMNSLRAEDTAVYYCASYGSYVSPLDYWGQGTLVTVSS
VL: DIQMTQSPSSLSASVGDRVTITCKSSQSLLYTSSQKNYLAWYQQKPGKAPKLLIYWASTRESGVPSRFSGSGSGTDFTLTISSLQPEDFATYYCQQYYAYPWTFGQGTKVEIK
notes: Fab made in E. coli from the phage display vector (human CL and CH1); also called this clone
As for B4, the equilibrium dissociation constant (Kd) in [7] came out at 9.8 nM. In experiment [8], this molecule returned a dissociation rate constant (koff) of 0.000507 s⁻¹ and an on-rate constant (kon) of 51600 M⁻¹ s⁻¹.

B5: OA-5D5.v1 one-armed anti-Met antibody (antibody, V domains shown)
VH: EVQLVESGGGLVQPGGSLRLSCAASGYTFTSYWLHWVRQAPGKGLEWVGMIDPSNSDTRFNPNFKDRFTISADTSKNTAYLQMNSLRAEDTAVYYCASYGSYVSPLDYWGQGTLVTVSS
VL: DIQMTQSPSSLSASVGDRVTITCKSSQSLLYTSSQKNYLAWYQQKPGKAPKLLIYWASTRESGVPSRFSGSGSGTDFTLTISSLQPEDFATYYCQQYYAYPWTFGQGTKVEIK
notes: One-armed antibody named only as another antibody of the invention (OA-5D5.v1); Its constant domains and Fc polypeptides are not described; also called rhuOA5D5v1
In turn, B5 displayed an IC50 in [3] of 5.4 nM.

B6: hu5D5.v2 (clone 78), expressed as Fab (Fab, V domains shown)
VH: EVQLVESGGGLVQPGGSLRLSCAASGYTFTSYWLHWVRQAPGKGLEWVGMIDPSNSDTRFNPNFKDRFTISADTSKNTAYLQMNSLRAEDTAVYYCATYRSYVTPLDYWGQGTLVTVSS
VL: DIQMTQSPSSLSASVGDRVTITCKSSQSLLYTSSQKNYLAWYQQKPGKAPKLLIYWASTRESGVPSRFSGSGSGTDFTLTISSLQPEDFATYYCQQYYAYPWTFGQGTKVEIKR
notes: Differs from hu5D5.v1 by 94T, 96R and 100T (Kabat, VH); Fab made in E. coli from the phage display vector (human CL and CH1)
On to B6, for which, in [8], the dissociation constant (Kd) turned out to be 0.625 nM, the off-rate (koff) is 0.000147 s⁻¹ and the kon is 236000 M⁻¹ s⁻¹. The “fold affinity improvement (against hu5D5.v1)” value in [9] worked out at 13 fold.

B7: 5D5 graft (direct HVR-graft of murine 5D5 into the human acceptor framework), displayed as an Fab on phage (Fab, V domains shown)
VH: EVQLVESGGGLVQPGGSLRLSCAASGYTFTSYWLHWVRQAPGKGLEWVGMIDPSNSDTRFNPNFKDRFTISADTSKNTAYLQMNSLRAEDTAVYYCARYGSYVSPLDYWGQGTLVTVSS
VL: DIQMTQSPSSLSASVGDRVTITCKSSQSLLYTSSQKNYLAWYQQKPGKAPKLLIYWASTRESGVPSRFSGSGSGTDFTLTISSLQPEDFATYYCQQYYAYPWTFGQGTKVEIK
notes: subgroup III VH with R71A, N73T, L78A; grafted L1 24-34, L2 50-56, L3 89-97, H1 26-35, H2 49-65, H3 95-102; R at 94); In the assay it was a monovalent Fab-g3 fusion on phage with human CL and CH1 of the vector; also called direct HVR-graft of 5D5
B7: in [10], the binding result is reported as “no binding (tested: 500 nM)”.

By Kd is commonly meant the free concentration of one partner at which half of the binding sites on the other are occupied at equilibrium, for simple one-to-one binding. By koff is commonly meant the rate constant with which the complex falls apart. A lower koff goes with slow dissociation. As usually defined, the kon is the second-order rate constant of association. For orientation: IC50 means the concentration that gives 50% inhibition. A low value points to greater potency.
